Target: the molecule itself
Test: SEC; size-exclusion chromatography of the purified protein on a Superdex S200 10/300 GL column

B1: Cas4 protein SSO1391 from Sulfolobus solfataricus (enzyme, UniProt Q97YD4 1-291, looked up)
chain: MFFTHSDMLLLSKRIKKLPKNVDEELRGWNWSEPPVYTRSLSQVSISEMVYCSTLRNVYLKVKGFRGEIGRQILQGSLIHTIYAIGIEAIKRFIYSRESIDGSTLRTLMGDEFYSLLKDLREEEGIYAKVLWDHITNIYSAELDRVRSKFTNLTRDSLVSQVVPFYVEFPVDGSLLGLTNLRVDAFIPHLPLIAEMKTGKYRYTHELSLAGYALAIESQYEIPIDFGYLCYVTVTEKEVKNNCKLIPISDSLRSEFLDMRDKAQDIMDKGVDPGIAKDCESDCMFYKVCHP
notes: Cas4 protein SSO1391 (DUF911 family), Sulfolobus solfataricus; predicted molecular mass 35.9 kDa
With B1 the “stoichiometry N” value was 2.
